Consider 1 substance from US20050266242A1.

A word on the Km: it is the substrate concentration at which the rate is half of its maximum.

The target of this experiment is seed (assembled NM protein, preformed fibers used to seed fiber elongation in Example 10) (Saccharomyces cerevisiae) (UniProt P05453). Description: seeded fiber elongation, sedimentation and wavelength shift assays, Lineweaver-Burk plot.
Chain of seed (assembled NM protein, preformed fibers used to seed fiber elongation in Example 10) (Saccharomyces cerevisiae) (P05453 1-253): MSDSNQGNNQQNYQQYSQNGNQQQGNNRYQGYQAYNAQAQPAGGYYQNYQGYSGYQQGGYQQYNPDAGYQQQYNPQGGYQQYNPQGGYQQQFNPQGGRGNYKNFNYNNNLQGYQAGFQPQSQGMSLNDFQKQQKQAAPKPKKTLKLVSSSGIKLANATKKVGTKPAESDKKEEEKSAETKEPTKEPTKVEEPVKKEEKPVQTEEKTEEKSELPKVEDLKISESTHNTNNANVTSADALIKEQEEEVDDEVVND

Turning to “NM^T158C-acrylodan (from UniProt P05453 1-253) (other; other documents disagree on this pair)”, the Km amounted to 0.12 µM, the Vmax (maximal rate of conformational conversion) worked out at 0.001 µmol/s, the kconf (rate constant of conformational conversion) was 0.005 s⁻¹ and the kconf/Km (conformational conversion efficiency) was 42000 M⁻¹ s⁻¹.
